Kd and koff data for one molecule are collected here from US11622990.

In this experiment the target is Recombinant human glucose-regulated protein GRP78 (human) (UniProt P11021). Nature of the experiment: SPR (Biacore T200), recombinant human GRP78 coupled to a CM5 chip, peptide injected at 0.3125-20 µM. For orientation: SPR reads the build-up and loss of mass on a sensor chip optically.
Recombinant human glucose-regulated protein GRP78 (human), sequence (P11021 19-654 limits assumed): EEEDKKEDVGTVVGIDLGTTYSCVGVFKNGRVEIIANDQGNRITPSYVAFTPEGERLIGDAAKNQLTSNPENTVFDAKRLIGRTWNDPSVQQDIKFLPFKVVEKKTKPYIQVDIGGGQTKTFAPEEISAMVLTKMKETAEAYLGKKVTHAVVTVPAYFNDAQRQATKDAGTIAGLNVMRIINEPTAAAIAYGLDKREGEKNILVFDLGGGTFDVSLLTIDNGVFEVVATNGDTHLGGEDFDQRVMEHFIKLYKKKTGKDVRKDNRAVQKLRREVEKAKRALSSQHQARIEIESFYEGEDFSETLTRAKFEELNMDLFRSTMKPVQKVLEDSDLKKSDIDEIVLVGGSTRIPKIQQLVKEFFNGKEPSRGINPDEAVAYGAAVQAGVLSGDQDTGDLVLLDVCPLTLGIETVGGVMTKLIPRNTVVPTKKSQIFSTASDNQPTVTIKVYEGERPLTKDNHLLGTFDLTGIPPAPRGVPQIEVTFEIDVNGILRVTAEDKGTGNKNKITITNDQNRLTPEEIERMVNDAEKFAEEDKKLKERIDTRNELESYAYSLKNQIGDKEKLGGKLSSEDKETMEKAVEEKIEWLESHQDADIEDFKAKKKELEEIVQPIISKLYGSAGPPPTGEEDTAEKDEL

Take SNTRVAP (all seven residues are D-configuration amino acids (^DS^DN^DT^DR^DV^DA^DP)) [SVAP (D-configuration peptide DS-DN-DT-DR-DV-DA-DP)]: the Kd (commonly the constant that tells how readily two partners part at equilibrium) stood at 5.22 µM and the koff (commonly a measure of how fast the partners let go of each other) came to 0.0283 s⁻¹.
